The data set addresses T1, PriB (Escherichia coli, UniProt P07013 1-104).
T1 sequence: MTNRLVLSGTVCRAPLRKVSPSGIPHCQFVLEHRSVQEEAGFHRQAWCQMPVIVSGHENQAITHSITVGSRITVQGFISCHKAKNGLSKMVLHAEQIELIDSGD
Kind of data set: sedimentation equilibrium.

Turning to TTTTTTTTTTTTTTTTTTTTTTTTTT (ssDNA) [5'Fl-dT(pT)25 (called 27-mer)], the binding result is reported as “binds”.
